Data as given in the supplement of paper PMC9170038.

Columns and labels:
MS2 coat protein [1] = assay: apparent KD of MS2 coat protein, switch ON state; designed switch direction (-1 OFF switch, 1 ON switch): 1; higher = weaker reporter binding; details: FMN input: 0 or 200 uM; Eterna round: R93 (includes R88 designs)
Outline: (§1)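 Titrations with SNAP-549-labelled MS2 coat protein ran in twofold steps from 0.7 or 1.5 nM to 3 µM, each step taking 0.8–1.5 h at the start and 10–20 min toward the end. The targets were designed RNA switches transcribed on-chip from Illumina sequencing clusters, held in 100 mM Tris-HCl pH 7.5, 80 mM KCl, 4 mM MgCl2, without or with constant ligand. Apparent KD was taken per design as the median of normalised cluster binding-curve fits.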

MS2 coat protein [2] = assay: apparent KD of MS2 coat protein, switch OFF state (with FMN for OFF switches, without FMN for ON switches); designed switch direction (-1 OFF switch, 1 ON switch): 1; higher = weaker reporter binding; details: FMN input: 0 or 200 uM; Eterna round: R93 (includes R88 designs)
Outline: as §1

Sequence: AAAAAAAAAACUCAGGAUAUAGAUUGUAGAACAUGAGGAUCACCCAUGUAGUGAAAGAAGAGAGACUAGAAGGGAGUAAAAAAAAA [Same State 2 #3]
- apparent KD of MS2 coat protein (MS2 coat protein [1]): 43.2 nM
- apparent KD of MS2 coat protein (MS2 coat protein [2]): 69.1 nM

Sequence: CGGAAGGAGAGAGAGGAUAUCCAAAGGAAAACAUGAGGAUCACCCAUGUAGAAGGUAGGAAAUUGGGAGAAGGCUCAAGAGAGAG [salish99-ss2-119(!)]
- apparent KD of MS2 coat protein (MS2 coat protein [1]): 37.4 nM
- apparent KD of MS2 coat protein (MS2 coat protein [2]): 51.4 nM

Sequence: AAAUAACAUGAGGAUCACCCAUGUGGGCUUAAGCAAGGAUAUGGGCACUCAAAAGUAGCGCCAGAAGGUGCAGUCG [Anrabitien]
- apparent KD of MS2 coat protein (MS2 coat protein [1]): 56.1 nM
- apparent KD of MS2 coat protein (MS2 coat protein [2]): 145 nM

Sequence: UAAAAACAUGAGGAUCACCCAUGUAGAAAUAUGGGAGGAUAUACAAAGACGAAAGUCAAAGUAGAAGGCCUAAAAU [Mat - Same State 1 - Eli mod - 32]
- apparent KD of MS2 coat protein (MS2 coat protein [1]): 16.5 nM
- apparent KD of MS2 coat protein (MS2 coat protein [2]): 62.2 nM

Sequence: AAAACUACAGAUCAGGAUAUGUUUAGGUAAACAUGAGGAUCACCCAUGUGCACCUGAUAAACAACACAGAAGGGAUAACGUGGGA [Geerreleon]
- apparent KD of MS2 coat protein (MS2 coat protein [1]): 20.7 nM
- apparent KD of MS2 coat protein (MS2 coat protein [2]): 25.7 nM

Sequence: CUCAGGAAGAGAGAGGAUAUCCAAAGGAAAACAUGAGGAUCACCCAUGUAAAAGGUAGGAAAUUGGGAGAAGGCUCAAGAGAGAG [salish99-ss2-096]
- apparent KD of MS2 coat protein (MS2 coat protein [1]): 22.3 nM
- apparent KD of MS2 coat protein (MS2 coat protein [2]): 40 nM

Sequence: GUGGUACAUGAGGAUCACCCAUGUGUGGGAGCAUGAGGAUAUGUCAGUCCAUGAAAUACGAUAGAAGGCAUGGUGA [JR_SS001_Sub1712]
- apparent KD of MS2 coat protein (MS2 coat protein [1]): 234 nM
- apparent KD of MS2 coat protein (MS2 coat protein [2]): 264 nM

Sequence: AACAAUCUAUCUGAGGAUAUCAUGAAAAAAACAUGAGGAUCACCCAUGUGCAGGAAAACUGCAUAUGAGAAGGCAGAUAGAUUGA [SS2: 1101]
- apparent KD of MS2 coat protein (MS2 coat protein [1]): 21.6 nM
- apparent KD of MS2 coat protein (MS2 coat protein [2]): 913 nM

Sequence: AAAAAAAAAGUCGAGGAUAUCCACAUGGCGACAUGAGGAUCACCCAUGUGAAGAAAAGCACAUGAGGAGAAGGCGACAAAAAAAA [Same State 2.7a (Tightrope mod)]
- apparent KD of MS2 coat protein (MS2 coat protein [1]): 32.7 nM
- apparent KD of MS2 coat protein (MS2 coat protein [2]): 225 nM

Sequence: ACCCGAAAGACGUAGGAUAUGUGGUCACCGACAUGAGGAUCACCCAUGUAUGCGGGAGAAUGGGUGCAGAAGGACGCUGUUCGGU [Antilera]
- apparent KD of MS2 coat protein (MS2 coat protein [1]): 21.9 nM
- apparent KD of MS2 coat protein (MS2 coat protein [2]): 192 nM

Sequence: AAAACACAUGAGGAUCACCCAUGUAGAAAUAUGGGAGGAUAUACGAAAACGAAAGACAAAGUAGAAGGCCUAAAAG [saturn 4]
- apparent KD of MS2 coat protein (MS2 coat protein [1]): 41.6 nM
- apparent KD of MS2 coat protein (MS2 coat protein [2]): 153 nM

Sequence: AGGAAACAUGAGGAUCACCCAUGUAAAAAAUAUGGAGGAUAUACUAGAAGAAACAAAAUAGUAGAAGGCCAAAAAA [75%, Ex sub1, 31]
- apparent KD of MS2 coat protein (MS2 coat protein [1]): 15.2 nM
- apparent KD of MS2 coat protein (MS2 coat protein [2]): 19.4 nM

Sequence: UUUAAUUAUACGAAGGAUAUCGGUAAUUAGACAUGAGGAUCACCCAUGUUAUAUGGUUCCAUAUUCGAGAAGGUCGCGGGUGAAC [JR_SS002_Sub508]
- apparent KD of MS2 coat protein (MS2 coat protein [1]): 45.6 nM
- apparent KD of MS2 coat protein (MS2 coat protein [2]): 19.3 nM

Sequence: CAGAGACAUGAGGAUCACCCAUGUAGGAUUAUGGGAGGAUAUACAAAGACGAGAGUCAGAGUAGAAGGCCUAGGAC [salish99-ss1-144]
- apparent KD of MS2 coat protein (MS2 coat protein [1]): 20.8 nM
- apparent KD of MS2 coat protein (MS2 coat protein [2]): 45.6 nM

Sequence: AAUAAAAAUAGUCAGGAUAUGAGAACUAAGACAUGAGGAUCACCCAUGUAAACAGAACAAGUAAAUCAGAAGGGACAGGGUGAAA [JR_SS002_Sub201]
- apparent KD of MS2 coat protein (MS2 coat protein [1]): 39.3 nM
- apparent KD of MS2 coat protein (MS2 coat protein [2]): 30.2 nM

Sequence: AUUAUUAUUACGCAGGAUAUCGAGGUUUUUACAUGAGGAUCACCCAUGUUUUUUUUUUUAUAUUACGAGAAGGGCGAUAUUAUUA [salish99-SS2-01]
- apparent KD of MS2 coat protein (MS2 coat protein [1]): 22.9 nM
- apparent KD of MS2 coat protein (MS2 coat protein [2]): 21.9 nM

Sequence: AAAACACAUGAGGAUCACCCAUGUAGAAAUACGGGAGGAUAUACGAAAACGAAAGACAAAGUAGAAGGCCUAAAAG [saturn 7]
- apparent KD of MS2 coat protein (MS2 coat protein [1]): 38.7 nM
- apparent KD of MS2 coat protein (MS2 coat protein [2]): 53 nM

Sequence: GAAAAACAUGAGGAUCACCCAUGUGAAAAUAUGGGAGGAUAUACGAAGACGAAAGUCAAAGUAGAAGGCCUAAAAG [Garnet 31]
- apparent KD of MS2 coat protein (MS2 coat protein [1]): 23.8 nM
- apparent KD of MS2 coat protein (MS2 coat protein [2]): 87.9 nM

Sequence: AUAAGACAUGAGGAUCACCCAUGUAUAAGAGCAUGAGGAUAUAUAAAAAGAAAAAGGAGAAUAGAAGGCAUAGUUG [JR_SS001_Sub1221]
- apparent KD of MS2 coat protein (MS2 coat protein [1]): 84.1 nM
- apparent KD of MS2 coat protein (MS2 coat protein [2]): 107 nM

Sequence: AAAAAAAAACGUGAGGAUAUGUGAAAAUUAACAUGAGGAUCACCCAUGUGAUAAAAAAAAAAAAAACAGAAGGUACAAAAAAAAAA [Same 2 again I have no idea]
- apparent KD of MS2 coat protein (MS2 coat protein [1]): 21.2 nM
- apparent KD of MS2 coat protein (MS2 coat protein [2]): 28.4 nM

Sequence: AUAUAAAUAAGGUAGGAUAUACUAAAGUAAACAUGAGGAUCACCCAUGUGAAGAAAGAAACUCAUGUAGAAGGACCAUAUAUAUA [viburnum 2]
- apparent KD of MS2 coat protein (MS2 coat protein [1]): 27.2 nM
- apparent KD of MS2 coat protein (MS2 coat protein [2]): 248 nM
